The results in this text go back to publication PMC3101105 (Journal of the American Chemical Society, 2011).

In general, kcat refers to the number of substrate molecules converted per active site and unit of time at saturation. As a reminder, the kcat/Km is the second-order rate constant that governs catalysis at low substrate concentration. As a reminder, the stoichiometry N is the number of molecules, sites or subunits per partner or assembly.

The target of data set [1] is fluoroacetate dehalogenase (FAcD) RPA1163 (Rhodopseudomonas palustris, UniProt Q6NAM1, Y219F). Briefly: isothermal microcalorimetry steady-state kinetics. In kind it is biochemical. The conditions noted are these: read-out: Fluoroacetate / Km; 100 mM Tris-H2SO4 pH 8.5, 30°C.
Data set [2] addresses fluoroacetate dehalogenase (FAcD) RPA1163 (Rhodopseudomonas palustris, UniProt Q6NAM1, F40A). Kind of data set: isothermal microcalorimetry steady-state kinetics. It counts as biochemical. The settings on record: read-out: Fluoroacetate / Km; 100 mM Tris-H2SO4 pH 8.5, 30°C.
Data set [3] addresses fluoroacetate dehalogenase (FAcD) RPA1163 (Rhodopseudomonas palustris, UniProt Q6NAM1, W156H). Briefly: isothermal microcalorimetry steady-state kinetics. In kind it is biochemical. The settings on record: read-out: Fluoroacetate / Km; 100 mM Tris-H2SO4 pH 8.5, 30°C.
Data set [4] concerns the target fluoroacetate dehalogenase (FAcD) RPA1163 (Rhodopseudomonas palustris, UniProt Q6NAM1, W185F). Kind of data set: isothermal microcalorimetry steady-state kinetics. It counts as biochemical. The settings on record: read-out: Fluoroacetate / Km; 100 mM Tris-H2SO4 pH 8.5, 30°C.
For data set [5], the target named is fluoroacetate dehalogenase (FAcD) RPA1163 (Rhodopseudomonas palustris, UniProt Q6NAM1, H155N). Kind of data set: isothermal microcalorimetry steady-state kinetics. It counts as biochemical. The settings on record: read-out: Fluoroacetate / Km; 100 mM Tris-H2SO4 pH 8.5, 30°C.
Another data set deals with O=C(O)CCl. Briefly: isothermal microcalorimetry steady-state kinetics. In kind it is biochemical, Rhodopseudomonas palustris. The conditions noted are these: 100 mM Tris-H2SO4 pH 8.5, 30°C.
The data set “crystal structure” concerns the molecule itself. Kind of data set: crystal structure.

`O=C(O)CF` [fluoroacetate]: the Km turned out to be 1700 ± 200 µM in data set [1]; 4400 ± 800 µM in data set [2]; 8000 ± 3000 µM in data set [3]; 3300 ± 600 µM in data set [4]; 2900 ± 200 µM in data set [5].
Consider “fluoroacetate dehalogenase (FAcD) RPA1163 (Rhodopseudomonas palustris CGA009; F40A)”, for which, in the data set with O=C(O)CCl, the Km came to 1500 ± 400 µM, the catalytic constant (kcat) turned out to be 0.000483 ± 0.00015 s⁻¹ and the kcat/Km was 0.32 M⁻¹ s⁻¹.
On the same counts, the results for “fluoroacetate dehalogenase (FAcD) RPA1163 (Rhodopseudomonas palustris CGA009; H155N)” are 2000 ± 300 µM, 0.0883 ± 0.00833 s⁻¹ and 45 M⁻¹ s⁻¹.
For “fluoroacetate dehalogenase (FAcD) RPA1163 (Rhodopseudomonas palustris CGA009; W156H)”, in the data set with O=C(O)CCl, the Km was determined as 6000 ± 1000 µM, the kcat was 0.00167 ± 0.000333 s⁻¹ and the kcat/Km is 0.27 M⁻¹ s⁻¹.
On the same counts, the results for “fluoroacetate dehalogenase (FAcD) RPA1163 (Rhodopseudomonas palustris CGA009; W185F)” are 1000 ± 300 µM, 0.00533 ± 0.000667 s⁻¹ and 5 M⁻¹ s⁻¹.
The corresponding values for “fluoroacetate dehalogenase (FAcD) RPA1163 (Rhodopseudomonas palustris CGA009; Y219F)” are 1000 ± 70 µM, 0.007 ± 0.000667 s⁻¹ and 7 M⁻¹ s⁻¹.

B1: fluoroacetate dehalogenase RPA1163 (wild type) (enzyme, Rhodopseudomonas palustris CGA009)
chain: MPDLADLFPGFGSEWINTSSGRIFARVGGDGPPLLLLHGFPQTHVMWHRVAPKLAERFKVIVADLPGYGWSDMPESDEQHTPYTKRAMAKQLIEAMEQLGHVHFALAGHDRGARVSYRLALDSPGRLSKLAVLDILPTYEYWQRMNRAYALKIYHWSFLAQPAPLPENLLGGDPDFYVKAKLASWTRAGDLSAFDPRAVEHYRIAFADPMRRHVMCEDYRAGAYADFEHDKIDVEAGNKIPVPMLALWGASGIAQSAATPLDVWRKWASDVQGAPIESGHFLPEEAPDQTAEALVRFFSAAP
For B1, in the data set “crystal structure”, the “stoichiometry N” value is 2.
